# Patent publication US20260008815A1, “CYCLIC PEPTIDE OR SALT THEREOF, AND USES THEREOF” (FUJIFILM Corporation, priority 2023, published 2026)
# Bridge positions count the residues as written; N and C are the ends. Ends that are not written are not given here. COCH2 = acetyl group that carries the bridge
# B1: cyclic peptide SEQ ID NO: 337 (peptide)
# peptide: YCEKNYLDPEQYQYFIYFK(COCH2)Y
# modifications: thioether 2-19; not fully specified; printed as Y-(C)-EKNYLDPEQYQYFIYF-(K(acetyl))-Y
# B2: cyclic peptide SEQ ID NO: 340 (peptide)
# peptide: YCEENYLKPEQYQYFIYFK(COCH2)Y
# modifications: thioether 2-19; not fully specified; printed as Y-(C)-EENYLKPEQYQYFIYF-(K(acetyl))-Y
# B3: cyclic peptide SEQ ID NO: 346 (peptide)
# peptide: YCEENYLDPEQYQYFIYFK(COCH2)K
# modifications: thioether 2-19; not fully specified; printed as Y-(C)-EENYLDPEQYQYFIYF-(K(acetyl))-K
# B4: cyclic peptide SEQ ID NO: 344 (peptide)
# peptide: YCEENYLDPEQYQYFKYFK(COCH2)Y
# modifications: thioether 2-19; not fully specified; printed as Y-(C)-EENYLDPEQYQYFKYF-(K(acetyl))-Y
# B5: cyclic peptide SEQ ID NO: 341 (peptide)
# peptide: YCEENYLDKEQYQYFIYFK(COCH2)Y
# modifications: thioether 2-19; not fully specified; printed as Y-(C)-EENYLDKEQYQYFIYF-(K(acetyl))-Y
# B6: cyclic peptide SEQ ID NO: 342 (peptide)
# peptide: YCEENYLDPKQYQYFIYFK(COCH2)Y
# modifications: thioether 2-19; not fully specified; printed as Y-(C)-EENYLDPKQYQYFIYF-(K(acetyl))-Y
# B7: cyclic peptide SEQ ID NO: 343 (peptide)
# peptide: YCEENYLDPEQYKYFIYFK(COCH2)Y
# modifications: thioether 2-19; not fully specified; printed as Y-(C)-EENYLDPEQYKYFIYF-(K(acetyl))-Y
# B8: cyclic peptide SEQ ID NO: 335 (peptide)
# peptide: KCEENYLDPEQYQYFIYFK(COCH2)Y
# modifications: thioether 2-19; not fully specified; printed as K-(C)-EENYLDPEQYQYFIYF-(K(acetyl))-Y
# B9: cyclic peptide SEQ ID NO: 339 (peptide)
# peptide: YCEENYKDPEQYQYFIYFK(COCH2)Y
# modifications: thioether 2-19; not fully specified; printed as Y-(C)-EENYKDPEQYQYFIYF-(K(acetyl))-Y
# B10: cyclic peptide SEQ ID NO: 338 (peptide)
# peptide: YCEENKLDPEQYQYFIYFK(COCH2)Y
# modifications: thioether 2-19; not fully specified; printed as Y-(C)-EENKLDPEQYQYFIYF-(K(acetyl))-Y
# B11: cyclic peptide SEQ ID NO: 345 (peptide)
# peptide: YCEENYLDPEQYQYFIKFK(COCH2)Y
# modifications: thioether 2-19; not fully specified; printed as Y-(C)-EENYLDPEQYQYFIKF-(K(acetyl))-Y
# B12: cyclic peptide SEQ ID NO: 336 (peptide)
# peptide: YCKENYLDPEQYQYFIYFK(COCH2)Y
# modifications: thioether 2-19; not fully specified; printed as Y-(C)-KENYLDPEQYQYFIYF-(K(acetyl))-Y
# Target: T1, Recombinant Human FGFR2 alpha (IIIc) Fc Chimera Protein, CF (R&D systems, 712-FR-050) (human, UniProt P21802 22-377)
# T1 construct: bought; not shown: Fc part of the chimera
# Assay: ELISA on plate-bound FGFR2-Fc
# Method in brief: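 Plate-immobilized FGFR2 alpha (IIIc)-Fc (5 ng/well) incubated with peptide 3 h at room temperature, then anti-Myc antibody 2 h and chemiluminescent ELISA substrate. Signal corrected by subtracting FGFR-free wells; binding affinity scored into categories from the dose-response.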
# T1 sequence (P21802 22-377, change not shown): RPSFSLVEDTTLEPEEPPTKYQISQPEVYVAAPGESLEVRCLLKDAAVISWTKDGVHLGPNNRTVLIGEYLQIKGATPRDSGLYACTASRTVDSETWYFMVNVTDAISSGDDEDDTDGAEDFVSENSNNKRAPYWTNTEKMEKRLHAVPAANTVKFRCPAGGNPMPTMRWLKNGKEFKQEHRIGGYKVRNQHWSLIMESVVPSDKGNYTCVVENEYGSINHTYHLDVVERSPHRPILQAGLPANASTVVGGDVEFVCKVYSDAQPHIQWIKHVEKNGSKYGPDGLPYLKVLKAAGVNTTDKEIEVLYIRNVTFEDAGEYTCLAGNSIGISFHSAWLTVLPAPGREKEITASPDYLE
row,"ELISA luminescence signal at 10 nmol/L peptide, relative to SEQ ID NO: 47 (=1) [ratio]",Binder
1,0.1 to 0.5,YCEENYADPEQYQYFIYFK(COCH2)Y (thioether 2-19 (inferred)) [cyclic peptide SEQ ID NO: 327]
2,≥ 0.7,YCEENYLDPAQYQYFIYFK(COCH2)Y (thioether 2-19 (inferred)) [cyclic peptide SEQ ID NO: 330]
3,≥ 0.7,YCEENYLDPEQYQYFIYFK(COCH2)M (thioether 2-19) [cyclic peptide SEQ ID NO: 360]
4,≥ 0.7,YCEENYLDAEQYQYFIYFK(COCH2)Y (thioether 2-19 (inferred)) [cyclic peptide SEQ ID NO: 329]
5,≥ 0.7,B1
6,0.1 to 0.5,B2
7,≥ 0.7,YCEENMLDPEQYQYFIYFK(COCH2)Y (thioether 2-19) [cyclic peptide SEQ ID NO: 350]
8,≥ 0.7,B3
9,0.1 to 0.5,YCEENYLDPEQYQMFIYFK(COCH2)Y (thioether 2-19) [cyclic peptide SEQ ID NO: 357]
10,≥ 0.7,B4
11,≥ 0.7,YCEENYLDPEQYQYFAYFK(COCH2)Y (thioether 2-19) [cyclic peptide SEQ ID NO: 332]
12,≥ 0.7,YCEENYLDPMQYQYFIYFK(COCH2)Y (thioether 2-19) [cyclic peptide SEQ ID NO: 354]
13,≥ 0.7,B5
14,≥ 0.7,YCEENYLDMEQYQYFIYFK(COCH2)Y (thioether 2-19) [cyclic peptide SEQ ID NO: 353]
15,≥ 0.7,YCEMNYLDPEQYQYFIYFK(COCH2)Y (thioether 2-19) [cyclic peptide SEQ ID NO: 349]
16,0.1 to 0.5,YCHENYLDPEQHQYFHYFK(COCH2)Y (thioether 2-19) [cyclic peptide SEQ ID NO: 393]
17,≥ 0.7,B6
18,≥ 0.7,B7
19,≥ 0.7,YCEENYLDPEQYQYFHYFK(COCH2)H (thioether 2-19) [cyclic peptide SEQ ID NO: 391]
20,0.1 to 0.5,YCEENYLDPEQYQYFHYFK(COCH2)R (thioether 2-19) [cyclic peptide SEQ ID NO: 390]

row,"ELISA luminescence signal at 10 nmol/L peptide, relative to SEQ ID NO: 47 (=1) [ratio]",Binder
1,≥ 0.7,B8
2,≥ 0.7,YCEENYLDPEQYQYFIAFK(COCH2)Y (thioether 2-19) [cyclic peptide SEQ ID NO: 333]
3,≥ 0.7,B9
4,≥ 0.7,MCEENYLDPEQYQYFIYFK(COCH2)Y (thioether 2-19) [cyclic peptide SEQ ID NO: 347]
5,≥ 0.7,YCEENYLMPEQYQYFIYFK(COCH2)Y (thioether 2-19) [cyclic peptide SEQ ID NO: 352]
6,0.5 to 0.7,YCHENYLDPEQYQYFHYFK(COCH2)R (thioether 2-19) [cyclic peptide SEQ ID NO: 394]
7,0.1 to 0.5,B10
8,≥ 0.7,YCEENYLDPEQYQYFIMFK(COCH2)Y (thioether 2-19) [cyclic peptide SEQ ID NO: 359]
9,≥ 0.7,YCEENYLDPEQYQYFMYFK(COCH2)Y (thioether 2-19) [cyclic peptide SEQ ID NO: 358]
10,≥ 0.7,YCEENYMDPEQYQYFIYFK(COCH2)Y (thioether 2-19) [cyclic peptide SEQ ID NO: 351]
11,≥ 0.7,B11
12,≥ 0.7,YCEENYLDPEQYMYFIYFK(COCH2)Y (thioether 2-19) [cyclic peptide SEQ ID NO: 356]
13,≥ 0.7,B12
14,≥ 0.7,YCMENYLDPEQYQYFIYFK(COCH2)Y (thioether 2-19) [cyclic peptide SEQ ID NO: 348]
15,≥ 0.7,YCEENYLAPEQYQYFIYFK(COCH2)Y (thioether 2-19 (inferred)) [cyclic peptide SEQ ID NO: 328]
16,0.1 to 0.5,YCEENYLDPEQMQYFIYFK(COCH2)Y (thioether 2-19) [cyclic peptide SEQ ID NO: 355]
17,≥ 0.7,YCHENYLDPEQYQYFHYFK(COCH2)Y (thioether 2-19) [cyclic peptide SEQ ID NO: 392]
18,≥ 0.7,YCEENYLDPEQYAYFIYFK(COCH2)Y (thioether 2-19) [cyclic peptide SEQ ID NO: 331]
19,≥ 0.7,YCEENYLDPEQYQYFIYFK(COCH2)A (thioether 2-19) [cyclic peptide SEQ ID NO: 334]
